Results as given in paper PMC4388676 (PLoS ONE, 2015).
Entries after “also recorded” stand apart in the source; their conditions may differ. Bridge positions count the residues as written; N and C are the ends. Square brackets hold non-standard residues; d marks the D form. Ends that are not written are not given here. Peptide text beside a SMILES is read from it. * marks the point of attachment. FITC = O=C1OC2(c3ccc(O)cc3Oc3cc(O)ccc32)c2ccc(NC(=S)*)cc21; S5 = C=CCCC[C@](C)(N)C(=O)O

How the values were obtained:
[1] = Serum stability followed by LC-MS; assay type: in vitro ADME; conditions: 25% human serum, 37°C, peptide 0.3 μM, time points 0, 60, 120, 180, 360 and 900 min, TFA precipitation, LC-MS read-out, triplicate
Experimental: Human serum (Sigma Aldrich-Italy) was centrifuged at 13000 rpm for 10 min to remove lipids;the supernatant was collected and incubated at 37°C for at least 15 min. The assay started upon the addition of the peptides to the 25% serum for a final peptide concentration of 0.3 μM.
200 μL aliquots of the samples were taken after the following time points: 0, 60, 120, 180, 360 and 900 min. The aliquots were mixed with 100 μL of 15% TFA and incubated at 4°C for at least 15 min to induce the precipitation of the serum proteins. The supernatants were collected for each sample after centrifugation at 13000 rpm for 10 min and stored at -20°C.
The serum stability of peptides was followed by LC-MS analysis. using a Phenomenex Jupiter C4 (150 × 2 mm; 5 μm; 300 Å) and a method consisting of an isocratic step with H2O (0.1% TFA)/CH3CN (0.1% TFA) (70:30) for 10 min and a linear gradient of H2O (0.1% TFA)/CH3CN (0.1% TFA) from 30 to 80% of CH3CN (0.1% TFA) in 20 min at flow rate of 200 μL/min.
The assays were performed in triplicate.

KCTD11^BTB = target: T1, KCTD11^BTB (Homo sapiens, UniProt Q693B1); assay: ELISA binding of biotinylated peptides to His-TrxA-KCTD11^BTB; conditions: 0.8 μM biotinylated peptide on streptavidin-coated wells; His-TrxA-KCTD11^BTB 0.4-15.6 μM in PBS; anti-His/HRP read at 490 nm; mean of triplicate experiments
T1 construct: tetrameric BTB domain of KCTD11^BTB (residues 15–116) was generated; thioredoxin A (TrxA); made in house
T1 sequence (Q693B1 15-116 isoform Q693B1-2): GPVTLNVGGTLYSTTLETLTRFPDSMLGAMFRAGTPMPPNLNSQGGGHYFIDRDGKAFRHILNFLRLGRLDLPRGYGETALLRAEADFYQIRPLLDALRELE
Experimental: For ELISA assays, 5 μg/mL streptavidin in phosphate/citrate buffer pH 5.0 was incubated overnight at 37°C for coating. Firstly, wells were coated with 0.8 μM biotinylated Cul3^49-68 peptides in phosphate buffered saline (PBS) 1X for 1 h at room temperature. Binding step was performed with increasing concentrations (0.4, 0.75, 1.5, 3.8, 7.6 and 15.6 μM) of His-TrxA- KCTD11^BTB in PBS 1X. His-TrxA was used as negative control in the same concentrations. As blocking solution 3% gelatine, 0.05% Tween-20 in PBS 1X was used for 1 h at 37°C. Washes were executed with PBS 1X. To reveal the occurred interaction mouse anti-His monoclonal antibody was incubated in 1:1000 dilution at room temperature for 2 h; then, horseradish peroxidase-conjugated anti-mouse antibody (Pierce) was diluted 1:10000 in 1% gelatin, PBS 1X and incubated at 20°C for 1 h. The colorimetric reaction has been carried out with SIGMAFAST OPD reagent (Sigma Aldrich), according to the manufacturer’s instructions. Finally, a Model 680 Microplate Reader (Bio-Rad, Hercules, CA-USA) has been used for readings at 490 nm; data were processed by a Microplate Manager 5.2 program. The reported data are mean values of triplicate experiments.

[2] = Human serum (Sigma Aldrich-Italy), 25% serum; conditions: 37°C, up to 900 min
His-TrxA-KCTD11^BTB = target: T2, His-TrxA-KCTD11^BTB (UniProt Q693B1-2 15-116); assay: fluorescence polarisation; 2 uM FITC-peptide, KCTD11^BTB added at increasing concentration (0.1-15 uM in the methods; 0.1 nM to 20 uM in the legend); KCTD11^BTB concentration as monomer; triplicates; conditions: both partners purified
T2 construct: KCTD11, folded BTB region of the long form (isoform 2, UniProt Q693B1-2); residues 15-116 are stated for KCTD11^BTB in the modelling paragraph; numbers count on: the long form (isoform 2); The tags are named and used for detection in the ELISA; also called recombinant KCTD11^BTB; BTB of the tetrameric KCTD11; source: recombinant fusion protein with thioredoxin A, expressed and purified as …
T2 sequence (looked up): T1 sequence (Q693B1 15-116 isoform Q693B1-2)

KCTD5^BTB = target: T3, KCTD5^BTB (UniProt Q9NXV2 44-145); assay: fluorescence polarisation; 1 uM FITC-Cul3^49-68LA, KCTD5^BTB over 0.1 nM to 5 uM; triplicates; conditions: both partners purified
T3 construct: KCTD5, folded BTB domain, residues 44-145; also called BTB of the pentameric KCTD5; pentameric KCTD5^BTB; source: recombinant from the pET28/KCTD5^BTB plasmid, expressed and purified as elsewhere reported [33, 34]
T3 sequence (Q9NXV2 44-145): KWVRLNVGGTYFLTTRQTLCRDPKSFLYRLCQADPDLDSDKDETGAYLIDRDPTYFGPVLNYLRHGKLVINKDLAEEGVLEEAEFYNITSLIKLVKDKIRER

CSCC[C@H](NC(=O)[C@@H](NC(=O)[C@H](Cc1ccc(O)cc1)NC(=O)[C@H](C)NC(=O)[C@H](CC(N)=O)NC(=O)[C@H](CCCNC(=N)N)NC(=O)[C@H](Cc1ccc(O)cc1)NC(=O)[C@]1(C)CCCC=CCCC[C@](C)(NC(=O)[C@H](CC(C)C)NC(=O)CNC(=O)[C@H](CO)NC(=O)[C@H](CC(N)=O)NC(C)=O)C(=O)N[C@@H](Cc2ccccc2)C(=O)N[C@@H](CCC(=O)O)C(=O)N[C@@H](CCC(=O)O)C(=O)N1)[C@@H](C)O)C(=O)N[C@H](C(=O)N[C@@H](CC(C)C)C(=O)N[C@@H](Cc1c[nH]cn1)C(=O)N[C@@H](CCCCN)C(N)=O)C(C)C [Cul3^49-68SL] (Ac-NSGL[S5]FEE[S5]YRNAYTMVLHK-NH2; staple 5-9)
Estimate t1/2 in serum [1]: ~7 h

Cul3^49-68AA: non-stapled variant of Cul3^49-68 in which Tyr58 and Tyr62 were replaced with Ala residues (NSGLSFEELARNAATMVLHK-NH2; not fully specified (N-terminus))
Binding to recombinant KCTD11^BTB, qualitatively checked by ELISA (KCTD11^BTB): No relevant binding; also recorded: completely unable to bind KCTD11^BTB

Ac-NSGLSFEELYRNAYTMVLHK-NH2
cleaved bond [2]: Tyr58-Arg59, major
fragment found [2]: NAYTMVLHK-NH 2; also recorded: Ac-NSGLSFEELYR

Ac-NSGLSFEELYRNAYTMVLHK-NH2 [Cul3^49-68]
half-life at 0.3 μM ([1]; read-out: Estimate t1/2 in serum (converted)): 7 h

B1: FITC-Cul3^49-68 (peptide)
peptide: {FITC}-NSGLSFEELYRNAYTMVLHK-NH2
notes: Cullin 3 (Cul3), first part of the peptide 49-68; Cullin 3 (Cul3), second part of the peptide 49-68; also called wild-type peptide; source: synthetic peptide (solid phase, Fmoc), RP-HPLC purified
Kd (His-TrxA-KCTD11^BTB): 497 nM

{FITC}-NSGLSFE[S5]LYR[S5]AYTMVLHK-NH2 (staple 8-12) [FITC-Cul3^49-68EN]
Kd (His-TrxA-KCTD11^BTB): 620 nM

{FITC}-NSGLSFEE[S5]YRN[S5]YTMVLHK-NH2 (staple 9-13) [FITC-Cul3^49-68LA]
Kd (His-TrxA-KCTD11^BTB): 305 nM
Kd (KCTD5^BTB): 97 nM
